Experimental data from publication PMC12708648 (2025).

Experiments:
[1] = molecular target: T1, NS3-GST (rice stripe virus (RSV)); assay: MST
T1 chain: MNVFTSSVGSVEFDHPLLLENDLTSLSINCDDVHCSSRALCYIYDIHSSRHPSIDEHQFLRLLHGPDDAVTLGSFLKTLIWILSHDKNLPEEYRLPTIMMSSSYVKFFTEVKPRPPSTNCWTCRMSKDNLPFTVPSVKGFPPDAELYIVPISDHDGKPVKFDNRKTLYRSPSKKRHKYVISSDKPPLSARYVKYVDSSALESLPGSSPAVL

[2] = molecular target: T2, CP-GST (rice stripe virus (RSV), UniProt P68559 1-322); assay: MST
T2 chain: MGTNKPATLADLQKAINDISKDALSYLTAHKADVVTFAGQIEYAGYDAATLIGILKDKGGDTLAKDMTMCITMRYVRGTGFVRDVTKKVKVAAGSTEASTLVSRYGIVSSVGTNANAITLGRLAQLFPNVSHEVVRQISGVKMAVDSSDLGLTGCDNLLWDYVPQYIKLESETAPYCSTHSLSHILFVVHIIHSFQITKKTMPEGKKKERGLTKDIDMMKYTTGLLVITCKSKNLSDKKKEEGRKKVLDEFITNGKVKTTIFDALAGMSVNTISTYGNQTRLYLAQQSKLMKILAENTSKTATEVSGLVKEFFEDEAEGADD

B1: OsVIRK1C-His (domain or fragment)
chain: LCKRNRKPHKHMMIGSVDLGDEDEMRGSESLLYDLSTLRAATANFSEENKLGEGGFGPVYKGTLQNGQEIAVKRLSATSHQGQLEMKNEVVLVAKLQHKNLVRLLGCCIEEREKILVYEFLCNKSLDTILFDTSRQQDLNWEQRFKIIEGIGRGLLYLHEDSRLKIIHRDLKASNILLDVDMNPKISDFGLAKLFNMEASVANTSRIAGTYGYMAPEYALHGIFSAKSDVFSYGVLLLEIVTGRRNTCLHDSEDLLAFVWRHWSRGGAGELLDGCPAAGRRPQELLRCIHVGLLCVQEDPQLRPGMAAVVVMLNSRSVTLPAPSAPAFVSASRGIGGSPPPAAAAGDAPARSTDHEVPTAAR
modifications: labelling dye (NanoTemper) in the MST assay
[1]
  Kd: 4.25 µM
[2]
  Kd: 704 nM

B2: OsVIRK1N-His (domain or fragment)
chain: MAPPPPSPPCRPRVKPERALLCFSLLLLLTATTANASITDCPTTSSTNSSHVDDGAFGANLRALLSSLSAAAAASSSGFAENATGAAPDTAYGLAQCRGGIVGGGNGTSCRSCLDDSVRDAAKACPGEKSAVIISDYCLVRYSNASFAGAADERTVKLWWNTDNATQPERFKSLLGTLMGNLTDAAARASSPLMFAAGETDLPPFTKIYGMAQCTRDLAAGDCYRCLVGAVNNIPKCCDGKQGGQVITRSCSIRFEVYPFFDA
modifications: labelling dye (NanoTemper) in the MST assay
[1]
  Kd: 5.2 µM
[2]
  Kd: 1300 nM
